Source: patent US20240141048A1 (DYNAMICURE BIOTECHNOLOGY, published 2024)
Numbering of substitutions follows the chain as printed. Blank lines part the entries; values can stand above or below the binder they belong to.

Key:
[1] = biological target: human VISTA extracellular transmembrane-CD3zeta chimera on Jurkat-nfkb-GFP reporter cells (human, UniProt P20963 52-164); experiment: cell-based or functional assay
[2] = biological target: T1, His-tagged human VISTA extracellular domain protein (in house) (human, UniProt Q9H7M9 33-194); experiment: ELISA, hybridoma supernatant on coated human VISTA ECD (2 µg/ml)
T1 construct: also called human VISTA ECD; hVISTA; not shown: His tag
T1 sequence: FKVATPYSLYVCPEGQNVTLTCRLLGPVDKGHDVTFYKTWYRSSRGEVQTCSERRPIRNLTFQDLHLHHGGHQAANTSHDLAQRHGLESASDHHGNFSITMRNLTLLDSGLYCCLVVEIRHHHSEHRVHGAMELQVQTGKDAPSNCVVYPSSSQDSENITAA
Experimental: (§1) 50 μl of hybridoma supernatant was incubated with human VISTA ECD (2 μg/ml), mouse VISTA ECD (2 μg/mL), cynomolgus VISTA (2 μg/mL), or negative mouse IgG1 control coated on 96 well ELISA plates. Mouse anti-VISTA antibodies were detected by anti-mouse IgG-HRP (Jackson ImmunoResearch, Cat. # 615035214).

[3] = biological target: T2, His-tagged mouse VISTA extracellular domain protein (in house) (mouse, UniProt Q9D659 33-191); experiment: ELISA, hybridoma supernatant on coated mouse VISTA ECD (2 µg/mL)
T2 construct: extracellular domain; also called mouse VISTA ECD; mVISTA; not shown: His tag
T2 sequence (looked up): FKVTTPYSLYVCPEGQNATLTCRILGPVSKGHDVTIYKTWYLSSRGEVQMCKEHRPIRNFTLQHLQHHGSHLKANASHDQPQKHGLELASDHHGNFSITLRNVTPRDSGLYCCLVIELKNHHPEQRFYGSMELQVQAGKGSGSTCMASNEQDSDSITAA
Experimental: as §1

[4] = biological target: T3, mouse VISTA full length on Jurkat cells (mouse, UniProt Q9D659 33-308); experiment: flow cytometry, hybridoma supernatant on Jurkat cells expressing mouse VISTA
T3 construct: whole, on cells; also called Jurkat-mVISTA
T3 sequence (looked up): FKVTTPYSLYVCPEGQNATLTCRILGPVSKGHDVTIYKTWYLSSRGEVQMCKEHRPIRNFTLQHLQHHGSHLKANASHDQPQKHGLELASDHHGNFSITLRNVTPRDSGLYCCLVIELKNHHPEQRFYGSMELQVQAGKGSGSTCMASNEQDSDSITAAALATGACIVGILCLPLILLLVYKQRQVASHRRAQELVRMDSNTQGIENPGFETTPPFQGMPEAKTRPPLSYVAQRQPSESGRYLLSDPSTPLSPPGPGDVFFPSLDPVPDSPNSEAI
Experimental: (§2) Human and mouse VISTA expressing Jurkat cells were cultured in RPMI1640 with 10% FBS. Cells were seeded into a 96 well plate at 1×10⁵ cells/well. Then the cells were incubated with anti-VISTA hybridoma supernatants for 30 minutes at 4° C. […] After washing with FACS buffer, the cells were incubated with Alexa Fluor 647 conjugated anti-mouse IgG(H+L)(1 μg/ml) (Jackson ImmunoResearch, Cat. #61505214) for 30 minutes at 4° C. After washing with FACS buffer twice, the samples were run in a NovoCyte Flow Cytometer (Agilent). Data was analyzed using the NovoExpress Software.

[5] = biological target: T4, human VISTA full length on Jurkat cells (human, UniProt Q9H7M9 33-311); experiment: flow cytometry, hybridoma supernatant on Jurkat cells expressing human VISTA
T4 construct: also called Jurkat-hVISTA
T4 sequence: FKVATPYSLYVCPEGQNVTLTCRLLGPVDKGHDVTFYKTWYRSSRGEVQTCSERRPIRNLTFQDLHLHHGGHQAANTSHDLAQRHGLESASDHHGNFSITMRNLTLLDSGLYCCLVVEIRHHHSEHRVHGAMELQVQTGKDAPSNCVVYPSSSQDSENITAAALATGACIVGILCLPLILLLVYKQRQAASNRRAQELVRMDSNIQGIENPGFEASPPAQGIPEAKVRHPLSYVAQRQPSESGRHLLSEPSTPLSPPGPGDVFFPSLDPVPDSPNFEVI
Experimental: as §2

B1: anti-VISTA antibody 15D11 (antibody, V domains shown)
VH: EVQLQQSGSELVKAGASVKLSCTASGFKIKDTFIHWVKQRPEQGLDWIGRIDPANGNSKYDPKFQGKATITADTSSNTAYLQLSSLTSEDTAVYYCARWPSNWEAMDYWGQGTSVTVSS
VL: QIVLTQSPAIMSASPGEKVTMTCSASSSVSYMYWYQQKPGSSPRLLIYDTSNLASGVPFRFSGSGSGTSYSLTISRMEAEDAATYYCQQWISYPLTFGTGTKLELK
notes: Mouse monoclonal from hybridoma
percentage of activated Jurkat-NFKb-GFP/hVISTA-hCD3z cells in the presence of OKT3 (3 ng/ml) [1]: ≤ 60% | binding result [2]: binds | binding result [3]: binds

B4: anti-VISTA antibody 16A1 (antibody, IgG1, V domains shown)
VH: QVQLQQSGAELMKPGASVKISCKATGYTFSSSWIEWVKQRPGHGLEWIGEIFPGSGSLNFNEKFKGKATFTADTSSNTAYLQLSSLTSDDSAVYYCARRPPGWFFDVWGAGTTVTVSS
VL: DIVMTQSHKFMSTSVGDRVSITCKASQDVTTDVAWYQQKPGQSPKLLIYSASYRYTGVPDRFTGSGSGTDFTFTISSVQAEDLTVYYCQQHYSSPWTFGGGTKLEIK
notes: Mouse monoclonal; Tested as hybridoma supernatant and as recombinant mIgG1
binding result [2]: binds | binding result [5]: binds

The remaining lines, values ahead:

binding result [4]: binds | percentage of activated Jurkat-NFKb-GFP/hVISTA-hCD3z cells in the presence of OKT3 (3 ng/ml) [1]: > 60% | binding result [2]: binds | binding result [5]: binds | binding result [3]: binds
B2: anti-VISTA antibody 9F9 (antibody, V domains shown)
VH: QVQFQQSGAELARPGASVKLSCKASGYTFTGYWMQWVKQRPGQGLEWIGAIYPGDGDTRYSQKFKGKVTLTADKSSSTAYMQLSSLASEDSAVYYCARRDYGAWFAYWGQGTLVTVSA
VL: DIKVTQSPSSMYASLGERVTITCKASQDINSYLSWFQQKPGKSPKTLIYRANRLVDGVPSRFSGSGSGQDYSLTISSLDYEDMGIYYCLQYDEFPYTFGGGTKLEIK
notes: Mouse monoclonal

binding result [4]: binds | binding result [2]: binds | binding result [5]: binds | binding result [3]: binds
B3: anti-VISTA antibody 17E9 (antibody, IgG1, V domains shown)
VH: QVQLQQSGAELMKPGASVKISCTATGYTFSSCWIEWVKQRPGHGLEWLGEILPGSDYTNYNEKFKDKATFTADTSSDTAYMQLSSLTSEDSAVYYCARRPPGWYFDVWGAGTAVTVSS
VL: B4 VL with T30S, V33I, Y55F, T84A, Q90H, H91Q, S94T, E105D
notes: as for B4

binding result [4]: binds | binding result [2]: binds | binding result [5]: binds | binding result [3]: binds
B5: anti-VISTA antibody 20E4 (antibody, IgG1, V domains shown)
VH: B4 VH with I34V, K38R, L58T, N59H, F60Y
VL: B4 VL with T30S, T84A, S94T
notes: as for B4
